Results reported in patent US20180155451A1 (published 2018).

T1: FcγRIIa R (human, UniProt P12318 34-217)
T1 construct: extracellular domain; also called FcgRIIa R type; 2aR
T1 sequence (looked up): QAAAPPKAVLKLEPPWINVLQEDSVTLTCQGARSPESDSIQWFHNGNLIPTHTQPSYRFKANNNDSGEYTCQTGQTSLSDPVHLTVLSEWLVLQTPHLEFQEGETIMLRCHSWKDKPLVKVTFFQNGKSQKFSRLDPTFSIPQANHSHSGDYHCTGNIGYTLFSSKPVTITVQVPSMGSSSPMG

T2: FcγRIIb (human, UniProt P31994 43-217)
T2 construct: extracellular domain; also called FcgRIIb; 2b
T2 sequence (looked up): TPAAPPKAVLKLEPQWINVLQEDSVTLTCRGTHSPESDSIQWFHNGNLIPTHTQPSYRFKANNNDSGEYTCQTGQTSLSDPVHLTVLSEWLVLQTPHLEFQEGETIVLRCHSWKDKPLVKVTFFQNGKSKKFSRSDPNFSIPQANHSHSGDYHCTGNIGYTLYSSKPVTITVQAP


What was measured:
FcγRIIa R [1] = target: T1, FcγRIIa R; assay: SPR; He/Con_2aR divided by He/Con_2b (FcγRIIb as reference)
Protocol: (§1) The heterodimerized antibodies He Abs in which one of the H chains was introduced with an alteration were assayed for their binding activities to each activating FcγR and inhibitory FcγR according to the method described in Example 4. […] The activating FcγRs in FIGS. 26, 27, 28, and 29 are FcγRIa, FcγRIIa (R), FcγRIIa (H), and FcγRIIIa, respectively.
(§2) Analysis of interaction between objective antibody and the FcγR was carried out using Biacore T100 (GE Healthcare). HBS-EP+ (GE Healthcare) was used as the running buffer, and the measurement temperature was set to 25° C. Chips produced by immobilizing the antigen peptide by the amine coupling method to a Series S Sencor Chip CM5 (GE Healthcare), or alternatively, chips produced by allowing preliminarily biotinylated antigen peptides to interact with and immobilize onto a Series S Sensor Chip SA (certified) (GE Healthcare) were used. Antibodies of interest were captured onto an antigen peptide-immobilized chip, and allowed to interact to each FcγR diluted with running buffer. To regenerate and repeatedly use the chip, the antibodies captured on the chip were washed off by reacting 10 mM glycine-HCl, pH 1.5.

FcγRIIa R [2] = target: T1, FcγRIIa R; assay: SPR (Biacore), antibody captured, FcγR as analyte; relative binding
Protocol: as §1, §2

FcγRIIb = target: T2, FcγRIIb; assay: as above
Protocol: as §1, §2

IIaR/IIb (He_2aR/2b) (FcγRIIa R [1]) [ratio] | He/Con_2aR (IIaR binding) (FcγRIIa R [2]) | He/Con_2b (IIb binding) (FcγRIIb) | Binder
2.14 | 38.1 % of GpH7-A5/GpH7-B3/GpL16-k0 (=100) | 17.8 % of GpH7-A5/GpH7-B3/GpL16-k0 (=100) | GpH7-A5/GpH7-B3 variant E269_11K/GpL16-k0 (antibody, human IgG1, kappa, heterodimerized antibody, mutation in the GpH7-B3 chain only; also called He Ab) heavy 1: not shown heavy 2: not shown light: DIVMTQSPLSLPVTPGEPASISCQASESLVHSNRNTYLHWYLQKPGQSPQLLIYKVSNRFSGVPDRFSGSGSGTDFTLKISRVEAEDVGVYYCSQNTHVPPTFGQGTKVEIERTVAAPSVFIFPPSDEQLKSGTASVVCLLNNFYPREAKVQWKVDNALQSGNSQESVTEQDSKDSTYSLSSTLTLSKADYEKHKVYACEVTHQGLSSPVTKSFNRGEC
1.51 | 58 % of GpH7-A5/GpH7-B3/GpL16-k0 (=100) | 38.3 % of GpH7-A5/GpH7-B3/GpL16-k0 (=100) | GpH7-A5/GpH7-B3 variant D265_16H/GpL16-k0 (antibody, human IgG1, kappa, heterodimerized antibody, mutation in the GpH7-B3 chain only; also called He Ab) heavy 1: not shown heavy 2: not shown light: DIVMTQSPLSLPVTPGEPASISCQASESLVHSNRNTYLHWYLQKPGQSPQLLIYKVSNRFSGVPDRFSGSGSGTDFTLKISRVEAEDVGVYYCSQNTHVPPTFGQGTKVEIERTVAAPSVFIFPPSDEQLKSGTASVVCLLNNFYPREAKVQWKVDNALQSGNSQESVTEQDSKDSTYSLSSTLTLSKADYEKHKVYACEVTHQGLSSPVTKSFNRGEC
1.52 | 58.2 % of GpH7-A5/GpH7-B3/GpL16-k0 (=100) | 38.2 % of GpH7-A5/GpH7-B3/GpL16-k0 (=100) | GpH7-A5/GpH7-B3 variant D265_10E/GpL16-k0 (antibody, human IgG1, kappa, heterodimerized antibody, mutation in the GpH7-B3 chain only; also called He Ab) heavy 1: not shown heavy 2: not shown light: DIVMTQSPLSLPVTPGEPASISCQASESLVHSNRNTYLHWYLQKPGQSPQLLIYKVSNRFSGVPDRFSGSGSGTDFTLKISRVEAEDVGVYYCSQNTHVPPTFGQGTKVEIERTVAAPSVFIFPPSDEQLKSGTASVVCLLNNFYPREAKVQWKVDNALQSGNSQESVTEQDSKDSTYSLSSTLTLSKADYEKHKVYACEVTHQGLSSPVTKSFNRGEC
1.32 | 61.7 % of GpH7-A5/GpH7-B3/GpL16-k0 (=100) | 46.7 % of GpH7-A5/GpH7-B3/GpL16-k0 (=100) | GpH7-A5/GpH7-B3 variant E269_06M/GpL16-k0 (antibody, human IgG1, kappa, heterodimerized antibody, mutation in the GpH7-B3 chain only; also called He Ab) heavy 1: not shown heavy 2: not shown light: DIVMTQSPLSLPVTPGEPASISCQASESLVHSNRNTYLHWYLQKPGQSPQLLIYKVSNRFSGVPDRFSGSGSGTDFTLKISRVEAEDVGVYYCSQNTHVPPTFGQGTKVEIERTVAAPSVFIFPPSDEQLKSGTASVVCLLNNFYPREAKVQWKVDNALQSGNSQESVTEQDSKDSTYSLSSTLTLSKADYEKHKVYACEVTHQGLSSPVTKSFNRGEC
1.29 | 58.2 % of GpH7-A5/GpH7-B3/GpL16-k0 (=100) | 45 % of GpH7-A5/GpH7-B3/GpL16-k0 (=100) | GpH7-A5/GpH7-B3 variant E269_04F/GpL16-k0 (antibody, human IgG1, kappa, heterodimerized antibody, mutation in the GpH7-B3 chain only; also called He Ab) heavy 1: not shown heavy 2: not shown light: DIVMTQSPLSLPVTPGEPASISCQASESLVHSNRNTYLHWYLQKPGQSPQLLIYKVSNRFSGVPDRFSGSGSGTDFTLKISRVEAEDVGVYYCSQNTHVPPTFGQGTKVEIERTVAAPSVFIFPPSDEQLKSGTASVVCLLNNFYPREAKVQWKVDNALQSGNSQESVTEQDSKDSTYSLSSTLTLSKADYEKHKVYACEVTHQGLSSPVTKSFNRGEC
2.15 | 32.2 % of GpH7-A5/GpH7-B3/GpL16-k0 (=100) | 15 % of GpH7-A5/GpH7-B3/GpL16-k0 (=100) | GpH7-A5/GpH7-B3 variant D265_12R/GpL16-k0 (antibody, human IgG1, kappa, heterodimerized antibody, mutation in the GpH7-B3 chain only; also called He Ab) heavy 1: not shown heavy 2: not shown light: DIVMTQSPLSLPVTPGEPASISCQASESLVHSNRNTYLHWYLQKPGQSPQLLIYKVSNRFSGVPDRFSGSGSGTDFTLKISRVEAEDVGVYYCSQNTHVPPTFGQGTKVEIERTVAAPSVFIFPPSDEQLKSGTASVVCLLNNFYPREAKVQWKVDNALQSGNSQESVTEQDSKDSTYSLSSTLTLSKADYEKHKVYACEVTHQGLSSPVTKSFNRGEC
1.34 | 58.8 % of GpH7-A5/GpH7-B3/GpL16-k0 (=100) | 43.9 % of GpH7-A5/GpH7-B3/GpL16-k0 (=100) | GpH7-A5/GpH7-B3 variant E269_07I/GpL16-k0 (antibody, human IgG1, kappa, heterodimerized antibody, mutation in the GpH7-B3 chain only; also called He Ab) heavy 1: not shown heavy 2: not shown light: DIVMTQSPLSLPVTPGEPASISCQASESLVHSNRNTYLHWYLQKPGQSPQLLIYKVSNRFSGVPDRFSGSGSGTDFTLKISRVEAEDVGVYYCSQNTHVPPTFGQGTKVEIERTVAAPSVFIFPPSDEQLKSGTASVVCLLNNFYPREAKVQWKVDNALQSGNSQESVTEQDSKDSTYSLSSTLTLSKADYEKHKVYACEVTHQGLSSPVTKSFNRGEC
1.33 | 57.2 % of GpH7-A5/GpH7-B3/GpL16-k0 (=100) | 42.9 % of GpH7-A5/GpH7-B3/GpL16-k0 (=100) | GpH7-A5/GpH7-B3 variant E269_08L/GpL16-k0 (antibody, human IgG1, kappa, heterodimerized antibody, mutation in the GpH7-B3 chain only; also called He Ab) heavy 1: not shown heavy 2: not shown light: DIVMTQSPLSLPVTPGEPASISCQASESLVHSNRNTYLHWYLQKPGQSPQLLIYKVSNRFSGVPDRFSGSGSGTDFTLKISRVEAEDVGVYYCSQNTHVPPTFGQGTKVEIERTVAAPSVFIFPPSDEQLKSGTASVVCLLNNFYPREAKVQWKVDNALQSGNSQESVTEQDSKDSTYSLSSTLTLSKADYEKHKVYACEVTHQGLSSPVTKSFNRGEC
